Target: T1, procalcitonin (UniProt P01258 26-141)
T1 sequence: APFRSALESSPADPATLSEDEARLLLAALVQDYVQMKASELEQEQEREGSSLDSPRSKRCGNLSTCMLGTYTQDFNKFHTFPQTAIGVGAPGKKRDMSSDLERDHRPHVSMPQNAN
Assay: electrochemical IDE sensor

GGCGCCGTCAAGGCATTACAATTACGGATATGAACTCGAC (ssDNA, 5'-SH (thiol)) [complementary aptamer]
binding result: no binding
